This note sets out measurements from PMC8682804 (Science signaling, 2021).

The target of test [1] is PTHR in membranes of HEK-293-Gs-null cells (clone CL2) (UniProt Q03431). The test can be described thus: radioligand binding.
Test [2] addresses T1, PTHR (Homo sapiens, UniProt Q03431).
T1 sequence (Q03431 27-593): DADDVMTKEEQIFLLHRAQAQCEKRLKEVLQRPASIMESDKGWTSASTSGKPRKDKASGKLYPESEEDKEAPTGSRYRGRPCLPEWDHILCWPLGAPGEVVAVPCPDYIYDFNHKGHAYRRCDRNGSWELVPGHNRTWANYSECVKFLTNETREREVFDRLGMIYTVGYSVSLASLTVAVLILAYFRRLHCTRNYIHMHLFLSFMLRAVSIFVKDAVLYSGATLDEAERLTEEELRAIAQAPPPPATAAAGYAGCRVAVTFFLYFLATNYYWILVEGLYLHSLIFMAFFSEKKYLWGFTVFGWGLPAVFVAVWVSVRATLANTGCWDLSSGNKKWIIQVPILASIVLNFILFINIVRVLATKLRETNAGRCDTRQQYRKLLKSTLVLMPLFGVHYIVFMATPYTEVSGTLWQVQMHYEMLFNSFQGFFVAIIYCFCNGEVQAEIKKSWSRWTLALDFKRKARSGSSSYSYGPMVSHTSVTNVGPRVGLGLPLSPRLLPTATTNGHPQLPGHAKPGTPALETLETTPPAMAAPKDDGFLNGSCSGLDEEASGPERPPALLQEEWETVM
The test can be described thus: Time-course measurement of cAMP by FRET. The test is classed as cell-based. Particulars: comparison of PTH^WT and its diastereomers, fig. S1B.

Test [3] addresses T2, PTHR^CFP and βarr-2^YFP (Homo sapiens, UniProt Q03431).
T2 sequence (Q03431 27-593): T1 sequence (Q03431 27-593)
The test can be described thus: Time-course of β-arr2 recruitment by FRET. The class given is cell-based. Particulars: comparison of PTH^WT and its diastereomers, fig. S1C.

A word on the IC50: it is the midpoint of a concentration-inhibition curve.

In test [1], “PTH_(1–34) (PTH^WT), the synthetic N-terminal fragment of parathyroid hormone (peptide)” came in with a half-inhibitory concentration (IC50) of 0.1 nM.
Still for that read-out and setting: under “(D)-Leu(7)-PTH_(1–34)-NH2 (PTH^7d) (peptide)” stands 0.1 nM.
As to (D)-Asn([10])-PTH1–34 [PTH^10d], the “cAMP production time course” value in test [2] is on record as “indistinguishable increases in cAMP”. Moreover, in test [3], the “interaction of PTHR with β-arr2, time course” value was “stimulated the interaction of PTHR with β-arr2”.
